Values belong to the compound of their own block, whether it stands above or below them.
Legend:
NudC = molecular target: T1, NudC (Escherichia coli, UniProt P32664); experiment: NAD-RNA de-capping in vitro, gel read-out, ppGpp titration; type: biochemical; conditions: read-out: inhibition constant
T1 construct: homodimer by known biology
T1 sequence (P32664 1-257): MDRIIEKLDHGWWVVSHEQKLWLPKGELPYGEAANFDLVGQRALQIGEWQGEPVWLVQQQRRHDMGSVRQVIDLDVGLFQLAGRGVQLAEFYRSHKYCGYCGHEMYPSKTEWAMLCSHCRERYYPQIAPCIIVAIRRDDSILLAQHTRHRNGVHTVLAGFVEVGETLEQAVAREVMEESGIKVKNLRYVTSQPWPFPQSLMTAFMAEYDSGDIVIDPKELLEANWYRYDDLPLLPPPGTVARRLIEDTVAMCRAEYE

70S ribosome [1] = experiment: BLI; conditions: tRNAfMet (2-fold molar excess), 10 mM Tris-HCl pH 7.4, 60 mM NH4Cl, RelE assay also 6 mM beta-mercaptoethanol, 37 C 10 min, BLI temperature not stated
70S ribosome [2] = experiment: footprinting (RelE printing, ribosome titration); conditions: tRNAfMet, RelE toxin, 10 mM Tris-HCl pH 7.4, 60 mM NH4Cl, RelE assay also 6 mM beta-mercaptoethanol, 37 C 10 min, BLI temperature not stated
[3] = 10 mM Mg(OAc)2, 5'-NAD (first A replaced by NAD, start codon NAD-UG)
[4] = 10 mM Mg(OAc)2, 5'-triphosphate

Ki (NudC): ~70000 nM
Compound: Nc1nc2c(ncn2[C@@H]2O[C@H](COP(=O)(O)OP(=O)(O)O)[C@@H](OP(=O)(O)OP(=O)(O)O)[C@H]2O)c(=O)[nH]1 [ppGpp]

Compound: AUGAGCACAAAAAAGAAACCAUUAACACAAGAGCAGCUUGAGGACGCACGUCGCCUUAAAGCAAUUUAUG [NAD-cI(1-70) leaderless mRNA]
Kd (70S ribosome [1]; [3]): 4.3 nM | K half (70S ribosome [2]; [3]): 4.3 nM

Compound: AUGAGCACAAAAAAGAAACCAUUAACACAAGAGCAGCUUGAGGACGCACGUCGCCUUAAAGCAAUUUAUG [ppp-cI(1-70) leaderless mRNA]
Kd (70S ribosome [1]; [4]): 3.5 nM | K half (70S ribosome [2]; [4]): 3.8 nM
